Data published in PMC9898751 (The Journal of Biological Chemistry, 2022).
No end group written: not given here.

Molecular target: T1, PHF2(1–70), PHD domain of human PHF2 (residues 1–70) (human, UniProt O75151 1-70)
T1 sequence: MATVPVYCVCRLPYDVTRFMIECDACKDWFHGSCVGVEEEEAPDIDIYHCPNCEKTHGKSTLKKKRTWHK
Assay: ITC

B1: H3(1-12)K4me3 peptide (12-mer of the N-terminal tail of histone H3, trimethylated at lysine 4) (peptide)
peptide: ARTK(me3)QTARKSTG
B1 was tested, and the Kd was 640 nM.
